In patent US10961297 (SANFORD BURNHAM PREBYS MEDICAL DISCOVERY INSTITUTE, dated 2021):
Where a chain is given by its changes, count along the chain named. Numbers in names are those of the source.

Key:
[1] = molecular target: human BTLA-Fc (human) (UniProt Q7Z6A9); test: SPR, human BTLA-Fc immobilised, Fc fusion as analyte, bivalent analysis
[2] = molecular target: human BTLA-Fc (human) (UniProt Q7Z6A9); test: SPR, human BTLA-Fc immobilised, Fc fusion as analyte, monovalent (1:1) analysis
[3] = molecular target: human BTLA-Fc (human) (UniProt Q7Z6A9); test: SPR, human BTLA-Fc immobilised, Fc fusion as analyte, monovalent analysis
[4] = molecular target: T1, human BTLA Q37A mutant on EL4 cells (human, UniProt Q7Z6A9 31-289); test: flow cytometry, EL4 cells transduced with mutant human BTLA, HVEM-Fc then anti-human Fc [panel B]
T1 construct: whole, on cells; also called Gln37

[5] = molecular target: T2, human BTLA P59A mutant on EL4 cells (human, UniProt Q7Z6A9 31-289); test: as above
T2 construct: whole, on cells; also called Pro59

[6] = molecular target: T3, human BTLA R42D mutant on EL4 cells (human, UniProt Q7Z6A9 31-289); test: as above
T3 construct: whole, on cells; also called Arg42

[7] = molecular target: T4, human BTLA H127D mutant on EL4 cells (human, UniProt Q7Z6A9 31-289); test: as above
T4 construct: whole, on cells; also called His127

[8] = molecular target: T5, wild-type human BTLA on cells (human, UniProt Q7Z6A9 31-289); test: co-expression on 293T cells, loss of staining by Fc ligands in trans
T5 construct: whole, on cells

[9] = molecular target: T6, BTLA (form in the assay not stated) (UniProt Q7Z6A9 31-157); test: not told
T6 sequence: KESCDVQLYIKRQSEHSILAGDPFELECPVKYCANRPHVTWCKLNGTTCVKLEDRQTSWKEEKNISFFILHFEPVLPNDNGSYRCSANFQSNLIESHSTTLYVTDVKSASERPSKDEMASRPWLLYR

[10] = molecular target: T7, human HVEM G60D mutant on 293T cells (human, UniProt Q92956 39-283); test: flow cytometry, CD160-Fc on 293T cells with mutant HVEM
T7 construct: also called Gly^60
T7 sequence: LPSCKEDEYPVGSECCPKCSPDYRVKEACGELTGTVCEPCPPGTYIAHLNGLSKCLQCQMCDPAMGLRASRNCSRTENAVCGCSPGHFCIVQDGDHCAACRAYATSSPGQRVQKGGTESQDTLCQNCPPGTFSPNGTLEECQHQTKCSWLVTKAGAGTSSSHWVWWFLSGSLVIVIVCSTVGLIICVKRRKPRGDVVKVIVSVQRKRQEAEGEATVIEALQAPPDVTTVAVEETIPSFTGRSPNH

[11] = molecular target: T8, human HVEM R109W mutant on 293T cells (human, UniProt Q92956 39-283); test: as above
T8 construct: also called Arg^109
T8 sequence: T7 sequence with D22G, R71W

[12] = molecular target: T9, human HVEM A102P mutant on 293T cells (human, UniProt Q92956 39-283); test: as above
T9 construct: also called Ala^102
T9 sequence: T7 sequence with D22G, A64P

[13] = molecular target: T10, human HVEM T82P mutant on 293T cells (human, UniProt Q92956 39-283); test: as above
T10 construct: also called Thr^82
T10 sequence: T7 sequence with D22G, T44P

[14] = molecular target: T11, human HVEM Y61C mutant on 293T cells (human, UniProt Q92956 39-283); test: as above
T11 construct: also called Tyr^61
T11 sequence: T7 sequence with D22G, Y23C

[15] = molecular target: T12, human HVEM G72D mutant on 293T cells (human, UniProt Q92956 39-283); test: as above
T12 construct: also called Gly^72
T12 sequence: T7 sequence with D22G, G34D

[16] = molecular target: T13, human HVEM P59S mutant on 293T cells (human, UniProt Q92956 39-283); test: as above
T13 construct: also called Pro^59
T13 sequence: T7 sequence with P21S, D22G

[17] = molecular target: T7, human HVEM G60D mutant on 293T cells; test: flow cytometry, LIGHT on 293T cells with mutant HVEM
[18] = molecular target: T10, human HVEM T82P mutant on 293T cells; test: as above

Sequence of human BTLA-Fc (human) (Q7Z6A9 26-150 limits assumed): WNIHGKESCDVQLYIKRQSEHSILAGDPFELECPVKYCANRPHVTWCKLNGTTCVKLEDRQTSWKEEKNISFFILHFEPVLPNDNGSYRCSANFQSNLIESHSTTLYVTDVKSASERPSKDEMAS

human CMV UL144-Fc (Fc fusion)
ka1 [1]: 7810 M⁻¹ s⁻¹
ka2 [1]: 1.39e-05
kd1 [1]: 0.0051 s⁻¹
kd2 [1]: 0.00289 s⁻¹
Kd [2]: 295 nM
koff [3]: 0.00476 s⁻¹
kon [3]: 16100 M⁻¹ s⁻¹

human HVEM-Fc (from UniProt Q92956 39-184) (Fc fusion)
ka1 [1]: 15300 M⁻¹ s⁻¹
ka2 [1]: 0.0573 M⁻¹ s⁻¹
kd1 [1]: 0.00902 s⁻¹
kd2 [1]: 2.05 s⁻¹
Kd [2]: 177 nM
koff [3]: 0.0066 s⁻¹
kon [3]: 37400 M⁻¹ s⁻¹

B1: human HVEM-Fc (Fc fusion)
chain: LPSCKEDEYPVGSECCPKCSPGYRVKEACGELTGTVCEPCPPGTYIAHLNGLSKCLQCQMCDPAMGLRASRNCSRTENAVCGCSPGHFCIVQDGDHCAACRAYATSSPGQRVQKGGTESQDTLCQNCPPGTFSPNGTLEECQHQTK
notes: also called parental HVEM-Fc; not shown: human IgG Fc region
binding result [4]: no binding
binding result [5]: no binding
binding result [6]: no binding
binding result [7]: no binding

B2: wild-type human HVEM on 293T cells (receptor)
chain: T7 sequence with D22G
notes: also called TNFRSF14
binding result [8]: binds

B3: HVEM-RTWA (HVEM-Fc mutein with S58R, G68T, L70W and L90A) (Fc fusion)
chain: B1 chain with S20R, G30T, L32W, L52A
notes: also called RTWA mutant; HVEM^RTWA Fc; not shown: human IgG Fc region
fold enhancement of BTLA affinity (against HVEM-RA) [9]: 10 fold

B4: CD160-Fc (Fc fusion)
chain: INITSSASQEGTRLNLICTVWHKKEEAEGFVVFLCKDRSGDCSPETSLKQLRLKRDPGIDGVGEISSQLMFTISQVTPLHSGTYQCCARSQKSGIRLQGHFFSILFTETGNYTVTGLKQRQHLEFSHNEGTLS
binding result [10]: no binding
binding result [11]: no binding
binding result [12]: no binding
binding result [13]: no binding
binding result [14]: no binding
binding result [15]: no binding
binding result [16]: no binding

B5: LIGHT (ligand)
chain: DGPAGSWEQLIQERRSHEVNPAAHLTGANSSLTGSGGPLLWETQLGLAFLRGLSYHDGALVVTKAGYYYIYSKVQLGGVGCPLGLASTITHGLYKRTPRYPEELELLVSQQSPCGRATSSSRVWWDSSFLGGVVHLEAGEKVVVRVLDERLVRLRDGTRSYFGAFMV
notes: also called TNFSF ligand LIGHT
binding result [17]: no binding
binding result [18]: no binding
